Source: publication PMC4863159
“And” between values parts separate entries of the source, which are not always exact repeats. Equal entries are not always repeated. Values belong to the substance of their own block, whether it stands above or below them.

How the values were obtained:
[1] = molecular target: C-CRD-RHCC-C-CRD fusion protein (not stated | Staphylothermus marinus); test: cross-linking; disulfide-linked oligomers of purified, oxidized CRD-RHCC fusion proteins in non-reducing SDS-PAGE; samples heat-denatured; control: reduced and treated with 60 mM iodoacetamide (IAA)
[2] = molecular target: C-CRD-RHCC-C-CRD fusion protein (not stated | Staphylothermus marinus); test: cross-linking; spontaneous disulfide cross-linking of CRD-RHCC fusion proteins over time; loss of the dimer band into polymers on anti-His Western blot, samples every 30 minutes for 4 hours, single exponential decay fit (y = e^-x/tau)
[3] = molecular target: C9A/C18A C-CRD mutant (CRD-RHCC fusion protein); test: western blot densitometry of the dimer band over time (spontaneous disulfide cross-linking); conditions: no reducing agent added, read off a plot
[4] = molecular target: N-CRD-RHCC-N-CRD fusion protein (not stated | Staphylothermus marinus); test: cross-linking; disulfide-linked oligomers of purified, oxidized CRD-RHCC fusion proteins in non-reducing SDS-PAGE; samples heat-denatured; control: reduced and treated with 60 mM iodoacetamide (IAA)
[5] = molecular target: N-CRD-RHCC-N-CRD fusion protein (not stated | Staphylothermus marinus); test: cross-linking; spontaneous disulfide cross-linking of CRD-RHCC fusion proteins over time; loss of the dimer band into polymers on anti-His Western blot, samples every 30 minutes for 4 hours, single exponential decay fit (y = e^-x/tau)
[6] = molecular target: right-handed coiled-coil domain (RHCC) from Staphylothermus marinus, lacking CRDs (Staphylothermus marinus); test: SDS-PAGE at low SDS concentration; purified RHCC on SDS-PAGE with a low SDS concentration to preserve the tetrameric coiled-coil; monomer lane beside it

stoichiometry N [1]: 3 and 2
τ (decay of the dimer band into polymers) [2]: 88 min
Substance: C-CRD-RHCC-C-CRD fusion protein

other: dimer loss (normalized) ([3]; t = 30 min, parent: est. 0.82): 1
other: dimer loss (normalized) ([3]; t = 60 min, parent: est. 0.38): 0.91
other: dimer loss (normalized) ([3]; t = 90 min, parent: est. 0.29): 0.92
other: dimer loss (normalized) ([3]; t = 120 min, parent: est. 0.23): 0.98
other: dimer loss (normalized) ([3]; t = 180 min, parent: est. 0.23): 1
other: dimer loss (normalized) ([3]; t = 240 min, parent: est. 0.22): 1
Substance: C-CRD-RHCC-C-CRD fusion protein C9A; C18A

stoichiometry N [4]: 2
τ (decay of the dimer band into polymers) [2]: 251 min
τ (decay of the dimer band into polymers) [5]: 340 min
Substance: N-CRD-RHCC-N-CRD fusion protein

stoichiometry N [6]: 4
Substance: right-handed coiled-coil domain (RHCC) from Staphylothermus marinus, lacking CRDs (domain or fragment)
